Experiments:
[1] = test system: Pseudomonas aeruginosa ATCC15442; test: Challenge test of 1:100 diluted cleaners with organic load, Pseudomonas aeruginosa
[2] = test system: Staphylococcus aureus (ATCC 6538); test: Challenge test of 1:100 diluted cleaners with organic load, Staphylococcus aureus; conditions: cleaner diluted 1:100, organic load, 40±1° C.
Streptococcus mutan = test: Challenge test of 1:100 diluted cleaners with organic load, Streptococcus mutan; conditions: cleaner diluted 1:100, organic load, 40±1° C.

B1: Subtilisin Savinase 16L (protein, UniProt P29600 1-269, looked up)
Subtilisin Savinase: AQSVPWGISRVQAPAAHNRGLTGSGVKVAVLDTGISTHPDLNIRGGASFVPGEPSTQDGNGHGTHVAGTIAALNNSIGVLGVAPSAELYAVKVLGASGSGSVSSIAQGLEWAGNNGMHVANLSLGSPSPSATLEQAVNSATSRGVLVVAASGNSGAGSISYPARYANAMAVGATDQNNNRASFSQYGAGLDIVAPGVNVQSTYPGSTYASLNGTSMATPHVAGAAALVKQKNPSWSNVQIRNHLKNTATSLGSTNLYGSGLVNAEAATR
- Concentration CFU/ml after time, 0 hrs ([1]; 0 hrs (initial), cleaner diluted 1:100, organic load, 40±1° C.): 2.94E+06 CFU/ml
- Concentration CFU/ml after time, 1 hr ([1]; 1 hr, cleaner diluted 1:100, organic load, 40±1° C.): 3.69E+08 CFU/ml
- Concentration CFU/ml after time, 4 hr ([1]; 4 hr, cleaner diluted 1:100, organic load, 40±1° C.): 2.06E+09 CFU/ml
- Concentration CFU/ml after time, 6 hrs ([1]; 6 hrs, cleaner diluted 1:100, organic load, 40±1° C.): 3.80E+09 CFU/ml
- Concentration CFU/ml after time, 24 hrs ([1]; 24 hrs, cleaner diluted 1:100, organic load, 40±1° C.): 1.46E+11 CFU/ml
- reduction of microorganisms by single component alone ([1]; protease or phenoxyethanol alone at the concentrations of diluted A and B): Neither the protease nor the phenoxyethanol alone at these concentrations achieved a reduction
- Concentration CFU/ml after time, 0 hrs ([2]; 0 hrs (initial)): 4.21E+07 CFU/ml
- Concentration CFU/ml after time, 1 hr ([2]; 1 hr): 1.58E+08 CFU/ml
- Concentration CFU/ml after time, 4 hrs ([2]; 4 hrs): 1.26E+08 CFU/ml
- Concentration CFU/ml after time, 6 hrs ([2]; 6 hrs): 2.00E+08 CFU/ml
- Concentration CFU/ml after time, 24 hrs ([2]; 24 hrs): 7.94E+07 CFU/ml
- Concentration CFU/ml after time, 0 hrs (Streptococcus mutan; 0 hrs (initial)): 1.40E+07 CFU/ml
- Concentration CFU/ml after time, 1 hr (Streptococcus mutan; 1 hr): 3.65E+07 CFU/ml
- Concentration CFU/ml after time, 4 hrs (Streptococcus mutan; 4 hrs): 2.00E+06 CFU/ml
- Concentration CFU/ml after time, 6 hrs (Streptococcus mutan; 6 hrs): 1.60E+06 CFU/ml
- Concentration CFU/ml after time, 24 hrs (Streptococcus mutan; 24 hrs): 1.16E+06 CFU/ml

— US20110123508A1, “INSTRUMENT CLEANER” (NOVAPHARM RESEARCH (AUSTRALIA) PTY. LTD., priority 2008, published 2011)
